Data from paper PMC3225088.

Molecular target: T1, NmtR wild-type (Mycobacterium tuberculosis, UniProt O69711 2-120)
T1 sequence: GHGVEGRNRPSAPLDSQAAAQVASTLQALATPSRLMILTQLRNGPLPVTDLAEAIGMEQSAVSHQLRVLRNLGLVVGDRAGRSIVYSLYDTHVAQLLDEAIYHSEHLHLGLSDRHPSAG
Test: fluorescence anisotropy

B1: nmt operator 30 bp (dsDNA)
DNA 1: GAAATAAATGAACATATGATCATATATTCT
DNA 2: AGAATATATGATCATATGTTCATTTATTTC
- Ka: 2.86e+10 M⁻¹
